7 molecules from patent US20240158497A1 (published 2024) can be followed below.

The Kd is a measure of binding affinity in units of concentration. As usually defined, the koff is the rate constant with which the complex falls apart. Read a low koff as slow dissociation. In general, kon refers to the second-order rate constant of association. A higher kon goes with faster complex formation. What is called t½ is the time needed for the level to fall by half in the phase considered. A low value points to rapid decline.

The target in assay [1] is T1, Macaca Fascicularis GP130 extracellular domain expressed with a C-terminal myc-myc-hexahistidine tag (Macaca fascicularis, UniProt P40189 23-619 (human entry)).
T1 construct: also called mfGP130-MMH; mfGP130-mmH
T1 chain: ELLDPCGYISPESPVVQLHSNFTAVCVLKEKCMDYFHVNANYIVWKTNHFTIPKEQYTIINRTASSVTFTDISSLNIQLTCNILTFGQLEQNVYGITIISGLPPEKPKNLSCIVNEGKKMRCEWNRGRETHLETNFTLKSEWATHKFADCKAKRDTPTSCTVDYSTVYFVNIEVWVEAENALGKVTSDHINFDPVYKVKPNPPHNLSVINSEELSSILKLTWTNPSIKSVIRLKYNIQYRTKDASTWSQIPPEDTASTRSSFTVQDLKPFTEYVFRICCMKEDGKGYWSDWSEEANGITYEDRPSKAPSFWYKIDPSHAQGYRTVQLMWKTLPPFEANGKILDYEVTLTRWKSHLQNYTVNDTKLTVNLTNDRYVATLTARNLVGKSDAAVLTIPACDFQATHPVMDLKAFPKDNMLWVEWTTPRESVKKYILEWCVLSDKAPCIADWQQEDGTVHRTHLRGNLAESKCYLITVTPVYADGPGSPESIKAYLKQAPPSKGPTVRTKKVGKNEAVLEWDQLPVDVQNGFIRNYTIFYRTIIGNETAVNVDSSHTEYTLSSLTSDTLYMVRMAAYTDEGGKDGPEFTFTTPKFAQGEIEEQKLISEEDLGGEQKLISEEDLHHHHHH
The assay is described as follows: SPR, bsAb captured by anti-hFc, 25C. On the procedure:
(§1) Equilibrium dissociation constants (KD values) for LEPR and GP130 binding to purified anti-LEPR/GP130 bispecific antibodies were determined using a real-time surface plasmon resonance biosensor using a Biacore 4000 instrument. All binding studies were performed in 10 mM HEPES, 150 mM NaCl, 3 mM EDTA, and 0.05% v/v Surfactant Tween-20, pH 7.4 (HBS-ET) running buffer at 25° C. and 37° C. The Biacore sensor surface was first derivatized by amine coupling with a monoclonal mouse anti-human Fc antibody (GE, #BR-1008-39) to capture anti-LEPR/GP130 bispecific antibodies. […] Different concentrations of LEPR or GP130 reagents were first prepared in HBS-ET running buffer (100 nM-3.7 nM; 3-fold serial dilution) and were injected over anti-human Fc captured anti-LEPR/GP130 bispecific antibody surface for 4 minutes at a flow rate of 30 μL/minute, while the dissociation of bispecific antibody bound LEPR or GP130 reagent was monitored for 10 minutes in HBS-ET running buffer. Kinetic association (kₐ) and dissociation (kd) rate constants were determined by fitting the real-time binding sensorgrams to a 1:1 binding model with mass transport limitation using Scrubber 2.0c curve-fitting software. Binding dissociation equilibrium constants (KD) and dissociative half-lives (t ½) were calculated from the kinetic rate constants as: […]
A general note: In SPR one partner is held on a chip, and binding of the other changes the refractive index at the surface.

In assay [2] the target is T2, human GP130 extracellular domain expressed with a C-terminal myc-myc-hexahistidine tag (human, UniProt P40189 23-619).
T2 construct: also called hGP130-MMH; hGP130-mmH
Description: SPR, bsAb captured by anti-hFc, 25C. The protocol:
as §1

In assay [3] the target is T1, Macaca Fascicularis GP130 extracellular …. The assay is described as follows: SPR, bsAb captured by anti-hFc, 37C. The protocol: as §1
Assay [4] has as its target T2, human GP130 extracellular domain …. Description: SPR, bsAb captured by anti-hFc, 37C. On the procedure: as §1

B1: bsAb19139D (bispecific antibody, V domains shown)
VH 1: QVQLVESGGGVVQPGRSLRLSCTASGFTFSSYAMYWVRQAPGKGLEWVSVIYYDGSYKYYADSVKGRFTISRDNSKNTLYLQMDSLRAEDTAVYYCASYNWNYWYFDFWGRGTLVTVSS
VH 2: QVQLVESGGGVVQPGGSLRLSCAASGFTFSTYDIHWVRQAPGKGLEWVAVISFDGSNRNYGDSVKGRFTISRDNSDNTLFLEMNNLRFEDTAVYYCAKEGYGVDFQHWGQGTLVTVSS
VL: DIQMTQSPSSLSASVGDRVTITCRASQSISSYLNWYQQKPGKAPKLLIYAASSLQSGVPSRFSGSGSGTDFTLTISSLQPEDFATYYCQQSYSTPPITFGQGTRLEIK
notes: LEPR x GP130 bispecific with common light chain
As for B1, the “100 nM mfGP130-MMH Bound (RU)” value is 6 RU in assay [1] and 2 RU in assay [3]. In addition, the entries for the “100 nM hGP130-MMH Bound (RU)” value in assay [2] and in assay [4] were 6 RU and 3 RU, respectively. Moreover, the binding result in assay [3] and in assay [4] was “no binding (tested: 100 nM)” in each case.

B2: bsAb19147D (bispecific antibody, V domains shown)
VH 1: QVQLVESGGGVVQPGRSLRLSCTASGFTFSSYAMYWVRQAPGKGLEWVSVIYYDGSYKYYADSVKGRFTISRDNSKNTLYLQMDSLRAEDTAVYYCASYNWNYWYFDFWGRGTLVTVSS
VH 2: EVQLVESGGGLVQPGGSLRLSCTASGFTFSNYAIFWVRQAPGKGLEYVSGISNNGVTKYYADSVRDRFTISRDNSRNTVSIQMDSLRTEDMAVYYCARENWGSDDGFDIWGQGTMVTVSS
VL: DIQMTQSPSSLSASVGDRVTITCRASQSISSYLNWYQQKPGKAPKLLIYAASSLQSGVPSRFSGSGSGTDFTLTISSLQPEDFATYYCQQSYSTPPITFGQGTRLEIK
notes: as for B1
Consider B2, for which the “100 nM mfGP130-MMH Bound (RU)” value in assay [1] amounted to 5 RU. In assay [3], the “100 nM mfGP130-MMH Bound (RU)” value was determined as 3 RU and the binding result was “no binding (tested: 100 nM)”.

B3: bsAb19144D (bispecific antibody, V domains shown)
VH 1: QVQLVESGGGVVQPGRSLRLSCTASGFTFSSYAMYWVRQAPGKGLEWVSVIYYDGSYKYYADSVKGRFTISRDNSKNTLYLQMDSLRAEDTAVYYCASYNWNYWYFDFWGRGTLVTVSS
VH 2: QVQLVQSGAEVKKPGASVKVSCKASGYTFTSLGISWVRQAPGQGLEWMGWISAYSGNRDYAQKFQGRVTMTTDTSTSTAYMELRSLRSDDTAVYYCARSLRFDYWGQGTLVTVSS
VL: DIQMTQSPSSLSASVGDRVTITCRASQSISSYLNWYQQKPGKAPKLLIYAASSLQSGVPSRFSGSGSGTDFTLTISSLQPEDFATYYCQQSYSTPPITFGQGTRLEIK
notes: as for B1
B3: in assay [1], the “100 nM mfGP130-MMH Bound (RU)” value was 27 RU, the Kd is 13.4 nM, the koff turned out to be 0.000762 s⁻¹ and the kon stood at 56700 M⁻¹ s⁻¹. For the same molecule, the t½ in assay [1] turned out to be 15 min. For the same molecule, in assay [2], the “100 nM hGP130-MMH Bound (RU)” value was 27 RU, binding was characterised by a dissociation constant (Kd) of 12.1 nM, the koff amounted to 0.000777 s⁻¹ and the kon turned out to be 64300 M⁻¹ s⁻¹. In assay [2], this molecule returned a t½ of 15 min. In addition, in assay [3], the “100 nM mfGP130-MMH Bound (RU)” value came out at 41 RU; the affinity, expressed as Kd, was 10.9 nM; the koff came out at 0.00183 s⁻¹; the kon was determined as 168000 M⁻¹ s⁻¹. In addition, the t½ in assay [3] was 6 min. For the same molecule, in assay [4], the “100 nM hGP130-MMH Bound (RU)” value came to 42 RU, binding was characterised by a dissociation constant (Kd) of 10.6 nM, the koff is 0.00188 s⁻¹ and the kon amounted to 177000 M⁻¹ s⁻¹. In assay [4], this molecule registered a t½ of 6 min.

B4: bsAb19143D (bispecific antibody, V domains shown)
VH 1: QVQLVESGGGVVQPGRSLRLSCTASGFTFSSYAMYWVRQAPGKGLEWVSVIYYDGSYKYYADSVKGRFTISRDNSKNTLYLQMDSLRAEDTAVYYCASYNWNYWYFDFWGRGTLVTVSS
VH 2: QLQLQESGPGLVKPSETLSLICTVSGGSISSNNYYWGWIRQPPGKGLEWIGNLYGSGSTYYNPSLKSRVTISVDTSKNQFSLKLSFVTAADTAVYHCARWDTNGGAFDIWGQGTMVTVSS
VL: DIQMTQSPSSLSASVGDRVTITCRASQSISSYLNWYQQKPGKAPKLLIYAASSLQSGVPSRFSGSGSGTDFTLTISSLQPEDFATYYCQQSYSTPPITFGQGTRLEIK
notes: as for B1
Consider B4, for which, in assay [1], the “100 nM mfGP130-MMH Bound (RU)” value worked out at 10 RU, binding was characterised by a dissociation constant (Kd) of 43 nM, the dissociation rate constant (koff) is 0.0013 s⁻¹ and the kon was found to be 30100 M⁻¹ s⁻¹. The molecule also showed a t½ in assay [1] of 9 min. Moreover, in assay [2], the “100 nM hGP130-MMH Bound (RU)” value worked out at 16 RU, the Kd is 20.2 nM, the koff was 0.000647 s⁻¹ and the kon turned out to be 32000 M⁻¹ s⁻¹. In addition, the t½ in assay [2] is 18 min. In assay [3], the “100 nM mfGP130-MMH Bound (RU)” value was 14 RU, the Kd came to 57.9 nM, the koff was 0.00396 s⁻¹ and the kon came out at 68300 M⁻¹ s⁻¹. Further, in assay [3], the t½ is 2.9 min. Moreover, in assay [4], the “100 nM hGP130-MMH Bound (RU)” value is 27 RU, the Kd was 44.6 nM, the koff is 0.00212 s⁻¹ and the kon is 47600 M⁻¹ s⁻¹. Further, the t½ in assay [4] was 5 min.

B5: bsAb19142D (bispecific antibody, V domains shown)
VH 1: QVQLVESGGGVVQPGRSLRLSCTASGFTFSSYAMYWVRQAPGKGLEWVSVIYYDGSYKYYADSVKGRFTISRDNSKNTLYLQMDSLRAEDTAVYYCASYNWNYWYFDFWGRGTLVTVSS
VH 2: EVQLVESGGGLVQPGGSLRLSCAASGLTFSSYEMNWVRQAPGKGLEWVSHISSAGSTKYYADSVKGRFTISRDNAKNSLFLQMNSLRAEDTAIYYCAGYNYAYYYFGVDVWGQGTTVTVSS
VL: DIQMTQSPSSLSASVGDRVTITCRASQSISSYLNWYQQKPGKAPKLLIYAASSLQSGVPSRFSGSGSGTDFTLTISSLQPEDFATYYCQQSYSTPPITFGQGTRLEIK
notes: as for B1
With B5, in assay [1], the “100 nM mfGP130-MMH Bound (RU)” value amounted to 28 RU, the Kd turned out to be 31.2 nM, the koff worked out at 0.00374 s⁻¹ and the kon was found to be 120000 M⁻¹ s⁻¹. In assay [1], this molecule displayed a t½ of 3.1 min. Besides, in assay [2], the “100 nM hGP130-MMH Bound (RU)” value stood at 31 RU, the Kd came out at 19 nM, the koff is 0.00329 s⁻¹ and the kon was 173000 M⁻¹ s⁻¹. In assay [2], the t½ is 4 min. For the same molecule, in assay [3], the “100 nM mfGP130-MMH Bound (RU)” value is 33 RU, the Kd was 21.6 nM, the koff came out at 0.00715 s⁻¹ and the kon turned out to be 332000 M⁻¹ s⁻¹. This molecule registered a t½ in assay [3] of 1.6 min. Further, in assay [4], the “100 nM hGP130-MMH Bound (RU)” value was 37 RU, the Kd turned out to be 17.5 nM, the koff stood at 0.00622 s⁻¹ and the kon stood at 356000 M⁻¹ s⁻¹. The molecule also showed a t½ in assay [4] of 1.9 min.

B6: bsAb19140D (bispecific antibody, V domains shown)
VH 1: QVQLVESGGGVVQPGRSLRLSCTASGFTFSSYAMYWVRQAPGKGLEWVSVIYYDGSYKYYADSVKGRFTISRDNSKNTLYLQMDSLRAEDTAVYYCASYNWNYWYFDFWGRGTLVTVSS
VH 2: QVQLQESGPGLVKPSETLSLTCTVSGGSISNYYWTWIRQPPGKGLEWIGHISNSGTTNYNPSLKSRVTISVDTSKNQFSLKLTSVTAADTAVYYCARLPLGIAAVDTDYYYYFGMDVWGQGTTVTVSS
VL: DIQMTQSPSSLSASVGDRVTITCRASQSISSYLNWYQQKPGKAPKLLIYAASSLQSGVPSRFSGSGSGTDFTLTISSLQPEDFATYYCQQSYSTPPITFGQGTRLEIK
notes: as for B1
Consider B6, for which, in assay [1], the “100 nM mfGP130-MMH Bound (RU)” value came out at 20 RU; the affinity, expressed as Kd, was 136 nM; the koff was 0.0546 s⁻¹; the kon is 402000 M⁻¹ s⁻¹. The t½ in assay [1] is 0.2 min. In assay [2], the “100 nM hGP130-MMH Bound (RU)” value is 23 RU; the affinity, expressed as Kd, was 105 nM; the koff stood at 0.0477 s⁻¹; the kon came out at 455000 M⁻¹ s⁻¹. The molecule also had a t½ in assay [2] of 0.2 min. In addition, in assay [3], the “100 nM mfGP130-MMH Bound (RU)” value worked out at 14 RU, binding was put at a Kd of 183 nM, the koff turned out to be 0.146 s⁻¹ and the kon was 797000 M⁻¹ s⁻¹. This molecule returned a t½ in assay [3] of 0.1 min. Moreover, in assay [4], the “100 nM hGP130-MMH Bound (RU)” value turned out to be 19 RU, the Kd came to 144 nM, the koff turned out to be 0.12 s⁻¹ and the kon was found to be 829000 M⁻¹ s⁻¹. Moreover, in assay [4], the t½ came out at 0.1 min.

B7: bsAb19141D (bispecific antibody, V domains shown)
VH 1: QVQLVESGGGVVQPGRSLRLSCTASGFTFSSYAMYWVRQAPGKGLEWVSVIYYDGSYKYYADSVKGRFTISRDNSKNTLYLQMDSLRAEDTAVYYCASYNWNYWYFDFWGRGTLVTVSS
VH 2: EVQLVESGGGVVRPGGSLRLSCTASGFTFDDYGMSWVRQAPGKGLEWVSGINWNGGRTEYADAVKGRFIISRDNAKNSLYLQMNSLRAEDTALYFCARTELRWDYWGQGTLVTVSS
VL: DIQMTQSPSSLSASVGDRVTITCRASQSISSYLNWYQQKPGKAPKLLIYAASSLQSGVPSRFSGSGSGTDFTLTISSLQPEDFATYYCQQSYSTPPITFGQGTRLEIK
notes: as for B1
B7: in assay [1], the “100 nM mfGP130-MMH Bound (RU)” value was determined as 15 RU, the dissociation constant (Kd) worked out at 184 nM, the koff was determined as 0.0207 s⁻¹ and the kon turned out to be 112000 M⁻¹ s⁻¹. The t½ in assay [1] was 0.6 min. In assay [2], the “100 nM hGP130-MMH Bound (RU)” value was determined as 15 RU, binding was characterised by a dissociation constant (Kd) of 219 nM, the koff was found to be 0.0232 s⁻¹ and the kon worked out at 106000 M⁻¹ s⁻¹. Further, in assay [2], the t½ is 0.5 min. In assay [3], the “100 nM mfGP130-MMH Bound (RU)” value came to 15 RU, the Kd amounted to 212 nM, the koff was found to be 0.0513 s⁻¹ and the kon was 242000 M⁻¹ s⁻¹. Besides, in assay [3], the t½ turned out to be 0.2 min. Moreover, in assay [4], the “100 nM hGP130-MMH Bound (RU)” value turned out to be 15 RU, the Kd worked out at 347 nM, the koff amounted to 0.0621 s⁻¹ and the kon is 179000 M⁻¹ s⁻¹. The molecule further displayed a t½ in assay [4] of 0.2 min.
